# Reference: paper PMC10711807
# B1: IRAK1, recombinant from bacteria, P51617 1-712 (enzyme)
# chain: MAGGPGPGEPAAPGAQHFLYEVPPWVMCRFYKVMDALEPADWCQFAALIVRDQTELRLCERSGQRTASVLWPWINRNARVADLVHILTHLQLLRARDIITAWHPPAPLPSPGTTAPRPSSIPAPAEAEAWSPRKLPSSASTFLSPAFPGSQTHSGPELGLVPSPASLWPPPPSPAPSSTKPGPESSVSLLQGARPFPFCWPLCEISRGTHNFSEELKIGEGGFGCVYRAVMRNTVYAVKRLKENADLEWTAVKQSFLTEVEQLSRFRHPNIVDFAGYCAQNGFYCLVYGFLPNGSLEDRLHCQTQACPPLSWPQRLDILLGTARAIQFLHQDSPSLIHGDIKSSNVLLDERLTPKLGDFGLARFSRFAGSSPSQSSMVARTQTVRGTLAYLPEEYIKTGRLAVDTDTFSFGVVVLETLAGQRAVKTHGARTKYLKDLVEEEAEEAGVALRSTQSTLQAGLAADAWAAPIAMQIYKKHLDPRPGPCPPELGLGLGQLACCCLHRRAKRRPPMTQVYERLEKLQAVVAGVPGHSEAASCIPPSPQENSYVSSTGRAHSGAAPWQPLAAPSGASAQAAEQLQRGPNQPVESDESLGGLSAALRSWHLTPSCPLDPAPLREAGCPQGDTAGESSWGSGPGSRPTAVEGLALGSSASSSSEPPQIIINPARQKMVQKLALYEDGALDSLQLLSSSSLPGLGLEQDRQGPEESDEFQS
# modifications: here or on the partner: biotin (biotinylated TOLLIP; site not told)
# Molecular target: TOLLIP, recombinant from bacteria, biotinylated (human), Q9H0E2
# Assay: BLI
# Conditions: remark: other sources report otherwise
binder,measurement,value
B1,Kd,91.5 nM
